A word on the Kd: it is the constant that tells how readily two partners part at equilibrium. High values mean weaker binding, low ones tighter binding.

This passage reports Kd results from article doi:10.1101/503680 (bioRxiv, 2018).

In this assay the target is His6-KIF3A-motor (mouse, UniProt P28741 1-350). Kind of assay: SPR. (Surface plasmon resonance follows binding to a sensor surface in real time, without labels.)
Chain of His6-KIF3A-motor (P28741 1-350): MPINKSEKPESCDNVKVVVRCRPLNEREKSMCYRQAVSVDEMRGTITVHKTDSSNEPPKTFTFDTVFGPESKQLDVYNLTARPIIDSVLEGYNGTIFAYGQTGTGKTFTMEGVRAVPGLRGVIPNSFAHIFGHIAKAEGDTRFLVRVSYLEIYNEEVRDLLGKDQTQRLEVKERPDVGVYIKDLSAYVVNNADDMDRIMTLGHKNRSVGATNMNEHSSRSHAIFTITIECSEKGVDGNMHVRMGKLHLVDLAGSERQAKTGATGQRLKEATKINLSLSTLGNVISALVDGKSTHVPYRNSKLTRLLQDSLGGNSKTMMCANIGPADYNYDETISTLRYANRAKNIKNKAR

B1: GST-KIF3A-S689A-Tail (domain or fragment, mouse, UniProt P28741 598-701, looked up)
chain: IPQDYQEMIENYVHWNEDIGEWQLKCVAYTGNNMRKQTPVPDKKERDPFEVDLSHVYLAYTEESLRQSLMKLERPRTSKGKARPKMGRRKRAAKPETVIDSLLQ
Regarding B1, the affinity, expressed as Kd, was 48.4 nM.
